Key:
[1] = biological target: T1, DnaA (AaDnaA, truncated) (Aquifex aeolicus, UniProt O66659 77-399); test: smPIFE
T1 sequence: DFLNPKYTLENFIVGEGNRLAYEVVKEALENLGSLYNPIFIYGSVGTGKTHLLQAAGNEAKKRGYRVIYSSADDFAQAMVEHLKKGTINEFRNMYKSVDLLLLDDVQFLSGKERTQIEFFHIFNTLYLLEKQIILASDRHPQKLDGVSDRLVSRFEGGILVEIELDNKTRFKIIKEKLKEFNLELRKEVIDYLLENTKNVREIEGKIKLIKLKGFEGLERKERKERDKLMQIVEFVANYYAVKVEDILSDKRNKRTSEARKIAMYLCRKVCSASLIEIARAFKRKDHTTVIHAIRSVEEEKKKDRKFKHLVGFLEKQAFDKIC

[2] = biological target: T1, DnaA (AaDnaA, truncated); test: smFRET
[3] = biological target: T1, DnaA (AaDnaA, truncated); test: smPIFE; remark: listed apart in the source
[4] = biological target: T1, DnaA (AaDnaA, truncated); test: smPIFE; remark: listed apart in the source
[5] = biological target: T1, DnaA (AaDnaA, truncated); test: smPIFE; remark: listed apart in the source
[6] = biological target: T1, DnaA (AaDnaA, truncated); test: smPIFE; remark: listed apart in the source

B1: pdT21 (Cy3 only, PIFE) (mixed)
DNA 1: TGGCGACGGCAGCGAGGCTTTTTTTTTTTTTTTTTTTTT
DNA 2: GCCTCGCTGCCGTCGCCA
[1]
  binding result: binds

B2: pdT21 (mixed)
DNA 1: B1 DNA 1
DNA 2: GCCTCGCTGCCGTCGCCA
[2]
  binding result: binds

B3: pdTcontrol (Cy3 only) (mixed)
DNA 1: B1 DNA 1
DNA 2: GCCTCGCTGCCGTCGCCA
modifications: C6-amino-dT at position 19
[3]
  binding result: binds

B4: pdT3+17 (Cy3 only) (mixed)
DNA 1: B1 DNA 1
DNA 2: GCCTCGCTGCCGTCGCCA
modifications: C6-amino-dT at position 22
[4]
  binding result: binds

B5: 5'-OP21 (Cy3 only) (mixed)
DNA 1: TTTTTTTTTTTTTTTTTTTTTCGGAGCGACGGCAGCGGT
DNA 2: ACCGCTGCCGTCGCTCCG
[5]
  binding result: binds

B6: 3'-OP21 (Cy3 only) (mixed)
DNA 1: B5 DNA 1
DNA 2: ACCGCTGCCGTCGCTCCG
modifications: C6-amino-dT at position 21
[6]
  binding result: binds

Source: publication PMC4288177
